The values that follow are results of earlier work, collected in patent publication US11819552B2, “Antibody-drug conjugates targeting uPARAP” (RIGSHOSPITALET, priority 2016, dated 2023).

What all share (conditions): Jürgensen et al., 2014; cited from earlier work
In series [1] the test system is other members of the mannose receptor family.
Series [2] concerns uPARAP.
In series [3] the target is T1, uPARAP (Homo sapiens, UniProt Q9UBG0).
T1 sequence (Q9UBG0 31-1479): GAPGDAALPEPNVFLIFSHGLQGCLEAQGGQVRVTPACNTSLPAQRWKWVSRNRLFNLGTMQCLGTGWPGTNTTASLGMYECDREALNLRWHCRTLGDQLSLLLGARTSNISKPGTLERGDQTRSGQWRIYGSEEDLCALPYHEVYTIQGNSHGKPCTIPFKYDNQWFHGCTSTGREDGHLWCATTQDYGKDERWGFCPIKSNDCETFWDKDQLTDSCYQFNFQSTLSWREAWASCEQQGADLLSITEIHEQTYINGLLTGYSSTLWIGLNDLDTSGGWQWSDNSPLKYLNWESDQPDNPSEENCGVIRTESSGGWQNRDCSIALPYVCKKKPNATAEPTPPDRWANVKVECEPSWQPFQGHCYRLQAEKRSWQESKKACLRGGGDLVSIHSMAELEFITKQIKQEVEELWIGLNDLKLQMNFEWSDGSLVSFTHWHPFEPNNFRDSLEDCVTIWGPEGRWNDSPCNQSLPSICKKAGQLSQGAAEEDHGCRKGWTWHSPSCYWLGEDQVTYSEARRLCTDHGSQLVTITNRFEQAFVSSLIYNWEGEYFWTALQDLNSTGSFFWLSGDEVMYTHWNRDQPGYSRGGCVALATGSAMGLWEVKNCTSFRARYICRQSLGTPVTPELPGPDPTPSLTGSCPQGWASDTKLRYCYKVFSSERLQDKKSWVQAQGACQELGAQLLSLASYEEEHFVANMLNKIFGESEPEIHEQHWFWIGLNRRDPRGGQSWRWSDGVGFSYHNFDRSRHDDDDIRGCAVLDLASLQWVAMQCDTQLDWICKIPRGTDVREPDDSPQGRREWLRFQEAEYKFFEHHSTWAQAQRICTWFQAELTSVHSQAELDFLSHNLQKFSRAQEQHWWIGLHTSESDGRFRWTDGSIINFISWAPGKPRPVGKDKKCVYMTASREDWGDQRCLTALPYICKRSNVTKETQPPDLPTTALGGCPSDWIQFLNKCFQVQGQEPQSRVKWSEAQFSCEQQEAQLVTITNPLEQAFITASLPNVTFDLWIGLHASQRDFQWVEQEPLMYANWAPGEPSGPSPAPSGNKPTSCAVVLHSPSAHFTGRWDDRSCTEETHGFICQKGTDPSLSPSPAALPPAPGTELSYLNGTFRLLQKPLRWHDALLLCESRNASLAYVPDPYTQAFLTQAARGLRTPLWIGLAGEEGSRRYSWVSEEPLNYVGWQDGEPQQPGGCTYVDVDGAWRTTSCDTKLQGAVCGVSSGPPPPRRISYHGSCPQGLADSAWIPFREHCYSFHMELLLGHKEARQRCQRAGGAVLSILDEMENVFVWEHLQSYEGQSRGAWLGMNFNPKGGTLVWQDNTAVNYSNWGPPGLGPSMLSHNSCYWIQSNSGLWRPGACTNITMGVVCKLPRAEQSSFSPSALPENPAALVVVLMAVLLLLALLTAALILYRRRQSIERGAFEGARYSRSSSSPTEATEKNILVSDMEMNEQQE

B1: mAb 5f4: mouse monoclonal IgG1K anti-uPARAP antibody, epitope in the FN-II domain (antibody, V domains shown)
VL: DIVMTQSQKFMSTSLGARVSITCKASQNVGSNVVWYQQKLGQSPKALIYSASSRFSGVPDRFTGSGSGTDFTLTISNVQSEDLAEYFCQQYNTYPLAFGAGTKLELK
VH: DVQLQESGPGLVKPSQSLSVTCTVTGYSITNAYYWNWIRHFPGNKLEWLGYIHSSGDTNYNPSLKSRISITRDTSKNQFFLQLNSVTTEDTATYYCARSPYYSNYFPYWGQGTLVTVSA
Turning to B1, in series [1], the “Binding to artificial family members with FN-II domain switched with that of uPARAP” value is “capable of binding” and the “Binding to other mannose receptor family members in wildtype form” value was “not capable of binding”. In the series with uPARAP [2], the “Binding to uPARAP with FN-II domain swapped with that of other family members” value is on record as “not capable of binding”. Besides, the “Binding to wildtype uPARAP” value in the series with uPARAP [3] is “capable of binding”.
